Test results reported in paper PMC11033290.
Several values for one entry are separate records, joined by “and”; a condition that tells them apart may be missing. Equal entries are not always repeated.

Target: Recombinant M. tuberculosis MDP1 (Mycobacterial DNA-binding protein 1) produced in Mycolicibacterium (Mycobacterium tuberculosis) (UniProt P9WMK7)
Assay: cross-linking; glutaraldehyde 0.2%, room temperature, 30 min; 4 µM or 8 µM protein in 150-1500 mM NaCl; SDS-PAGE on a 4-15% gradient gel

Recombinant M. tuberculosis MDP1 (Mycobacterial DNA-binding protein 1) produced in Mycolicibacterium (from UniProt P9WMK7 3-216) (natural protein)
stoichiometry N: 2 and 3
